Data published in article PMC314469, “Protein Interaction Networks by Proteome Peptide Scanning” (PLoS Biology, 2004).

T1: Boi1 SH3 (BOI1_YEAST), P38041
T1 chain: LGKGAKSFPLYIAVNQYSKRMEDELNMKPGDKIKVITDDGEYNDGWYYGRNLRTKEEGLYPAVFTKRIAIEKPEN

T2: Myo5 SH3 (MYO5_YEAST), Q04439
T2 chain: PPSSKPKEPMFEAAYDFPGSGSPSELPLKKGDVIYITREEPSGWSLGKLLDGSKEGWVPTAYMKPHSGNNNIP

T3: Yfr024 SH3 (LSB3_YEAST), P43603
T3 chain: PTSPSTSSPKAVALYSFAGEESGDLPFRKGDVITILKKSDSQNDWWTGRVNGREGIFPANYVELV

T4: Boi2 SH3 (BOI2_YEAST), P39969
T4 chain: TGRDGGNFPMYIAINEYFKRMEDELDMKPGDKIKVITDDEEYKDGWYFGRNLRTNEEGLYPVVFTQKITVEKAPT

T5: Rvs167 SH3 (RV167_YEAST), P39743
T5 chain: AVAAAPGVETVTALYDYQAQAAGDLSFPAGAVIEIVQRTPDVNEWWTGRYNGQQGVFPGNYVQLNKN

T6: Yhr016c SH3 (YSC84_YEAST), P32793
T6 chain: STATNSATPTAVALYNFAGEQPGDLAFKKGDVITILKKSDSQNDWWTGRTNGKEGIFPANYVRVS


molecular target: Sho1 SH3 (SHO1_YEAST), P40073; test: SPOT array
Sequence (P40073 295-366): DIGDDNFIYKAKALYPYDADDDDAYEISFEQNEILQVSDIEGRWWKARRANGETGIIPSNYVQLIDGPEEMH

Binder | normalised SPOT signal, Boehringer light units (BLU); mean over the file's lines of this peptide
PGGPKFEPLYPREE [YHR165C 347-360] | 40.6
PIRLRKRPPPPPPV [YIL156W 508-521] | 98.1
PKSPKAYPKLPDIQ [YDL117W 352-365] | 143
PIVKKNVPKPPPLV [YBR123C 400-413] | 50.2
PHFAKHSPDSPRTS [YER167W 325-338] | 25.1
PKHIRNEPVKPFRN [YHR037W 25-38] | 46.8
PKKSRVLPPLPFPL [YER032W 884-897] | 25000

Next, values leading:

normalised SPOT signal, Boehringer light units (BLU); mean over the file's lines of this peptide | Binder
84.8 | PKSEKIEPLSPSFK [YJL172W 61-74]
20.3 | PNPLKKAPIPPLAY [YPR059C 36-49]
22000 | PKTGKPLPTQPSSS [YKR001C 557-570]
29.4 | PPLPRAPPVPPATF [YJL021C 6-19]
56.5 | PPQMRSNPQQPPQD [YPL204W 472-485]
36.1 | PIGSRYNPNLPVTE [YPR019W 677-690]
8.1 | PPPPRRGPAPPPPP [YOR181W 345-358]
27.6 | PPNYKQQPNSPSSN [YLR183C 18-31]
950 | PLRERIIPILPANS [YMR164C 159-172]

Molecular target: T1, Boi1 SH3 (BOI1_YEAST), P38041
Test: SPOT array

Binder | normalised SPOT signal, Boehringer light units (BLU); mean over the file's lines of this peptide
PGGPKFEPLYPREE [YHR165C 347-360] | 0
PIRLRKRPPPPPPV [YIL156W 508-521] | 6390
PKSPKAYPKLPDIQ [YDL117W 352-365] | 409
PIVKKNVPKPPPLV [YBR123C 400-413] | 262
PHFAKHSPDSPRTS [YER167W 325-338] | 150
PKHIRNEPVKPFRN [YHR037W 25-38] | 1660
PKKSRVLPPLPFPL [YER032W 884-897] | 940

The remaining lines, values ahead:

normalised SPOT signal, Boehringer light units (BLU); mean over the file's lines of this peptide | Binder
536 | PKSEKIEPLSPSFK [YJL172W 61-74]
73.1 | PNPLKKAPIPPLAY [YPR059C 36-49]
609 | PKTGKPLPTQPSSS [YKR001C 557-570]
152 | PPLPRAPPVPPATF [YJL021C 6-19]
92.2 | PPQMRSNPQQPPQD [YPL204W 472-485]
132 | PIGSRYNPNLPVTE [YPR019W 677-690]
4340 | PPPPRRGPAPPPPP [YOR181W 345-358]
61 | PPNYKQQPNSPSSN [YLR183C 18-31]
340 | PLRERIIPILPANS [YMR164C 159-172]

Molecular target: T2, Myo5 SH3 (MYO5_YEAST), Q04439
Test: SPOT array

Binder | normalised SPOT signal, Boehringer light units (BLU); mean over the file's lines of this peptide
PGGPKFEPLYPREE [YHR165C 347-360] | 90
PIRLRKRPPPPPPV [YIL156W 508-521] | 60300
PKSPKAYPKLPDIQ [YDL117W 352-365] | 357
PIVKKNVPKPPPLV [YBR123C 400-413] | 154
PHFAKHSPDSPRTS [YER167W 325-338] | 236
PKHIRNEPVKPFRN [YHR037W 25-38] | 361
PKKSRVLPPLPFPL [YER032W 884-897] | 3590

More lines, now with the values ahead:

normalised SPOT signal, Boehringer light units (BLU); mean over the file's lines of this peptide | Binder
116 | PKSEKIEPLSPSFK [YJL172W 61-74]
137 | PNPLKKAPIPPLAY [YPR059C 36-49]
193 | PKTGKPLPTQPSSS [YKR001C 557-570]
35900 | PPLPRAPPVPPATF [YJL021C 6-19]
268 | PPQMRSNPQQPPQD [YPL204W 472-485]
187 | PIGSRYNPNLPVTE [YPR019W 677-690]
15000 | PPPPRRGPAPPPPP [YOR181W 345-358]
148 | PPNYKQQPNSPSSN [YLR183C 18-31]
175 | PLRERIIPILPANS [YMR164C 159-172]

Molecular target: T3, Yfr024 SH3 (LSB3_YEAST), P43603
Test: SPOT array

Binder | normalised SPOT signal, Boehringer light units (BLU); mean over the file's lines of this peptide
PGGPKFEPLYPREE [YHR165C 347-360] | 12.3
PIRLRKRPPPPPPV [YIL156W 508-521] | 292
PKSPKAYPKLPDIQ [YDL117W 352-365] | 83.8
PIVKKNVPKPPPLV [YBR123C 400-413] | 64.6
PHFAKHSPDSPRTS [YER167W 325-338] | 33.4
PKHIRNEPVKPFRN [YHR037W 25-38] | 928
PKKSRVLPPLPFPL [YER032W 884-897] | 12800

Second part, the binder after the results:

normalised SPOT signal, Boehringer light units (BLU); mean over the file's lines of this peptide | Binder
0 | PKSEKIEPLSPSFK [YJL172W 61-74]
15.3 | PNPLKKAPIPPLAY [YPR059C 36-49]
89.9 | PKTGKPLPTQPSSS [YKR001C 557-570]
135 | PPLPRAPPVPPATF [YJL021C 6-19]
3150 | PPQMRSNPQQPPQD [YPL204W 472-485]
197 | PIGSRYNPNLPVTE [YPR019W 677-690]
212 | PPPPRRGPAPPPPP [YOR181W 345-358]
184 | PPNYKQQPNSPSSN [YLR183C 18-31]
949 | PLRERIIPILPANS [YMR164C 159-172]

Molecular target: T4, Boi2 SH3 (BOI2_YEAST), P39969
Test: SPOT array

Binder | normalised SPOT signal, Boehringer light units (BLU); mean over the file's lines of this peptide
PGGPKFEPLYPREE [YHR165C 347-360] | 16.6
PIRLRKRPPPPPPV [YIL156W 508-521] | 39.2
PKSPKAYPKLPDIQ [YDL117W 352-365] | 23.5
PIVKKNVPKPPPLV [YBR123C 400-413] | 167
PHFAKHSPDSPRTS [YER167W 325-338] | 11
PKHIRNEPVKPFRN [YHR037W 25-38] | 0
PKKSRVLPPLPFPL [YER032W 884-897] | 16.2

Results, then the binder that gave them:

normalised SPOT signal, Boehringer light units (BLU); mean over the file's lines of this peptide | Binder
7.7 | PKSEKIEPLSPSFK [YJL172W 61-74]
0 | PNPLKKAPIPPLAY [YPR059C 36-49]
9.7 | PKTGKPLPTQPSSS [YKR001C 557-570]
13.2 | PPLPRAPPVPPATF [YJL021C 6-19]
194 | PPQMRSNPQQPPQD [YPL204W 472-485]
148 | PIGSRYNPNLPVTE [YPR019W 677-690]
19.8 | PPPPRRGPAPPPPP [YOR181W 345-358]
17.5 | PPNYKQQPNSPSSN [YLR183C 18-31]
16 | PLRERIIPILPANS [YMR164C 159-172]

Molecular target: T5, Rvs167 SH3 (RV167_YEAST), P39743
Test: SPOT array

Binder | normalised SPOT signal, Boehringer light units (BLU); mean over the file's lines of this peptide
PGGPKFEPLYPREE [YHR165C 347-360] | 176
PIRLRKRPPPPPPV [YIL156W 508-521] | 289
PKSPKAYPKLPDIQ [YDL117W 352-365] | 0
PIVKKNVPKPPPLV [YBR123C 400-413] | 33
PHFAKHSPDSPRTS [YER167W 325-338] | 110
PKHIRNEPVKPFRN [YHR037W 25-38] | 49.7
PKKSRVLPPLPFPL [YER032W 884-897] | 18900

Continued, values first:

normalised SPOT signal, Boehringer light units (BLU); mean over the file's lines of this peptide | Binder
44.3 | PKSEKIEPLSPSFK [YJL172W 61-74]
28.8 | PNPLKKAPIPPLAY [YPR059C 36-49]
64.7 | PKTGKPLPTQPSSS [YKR001C 557-570]
17.7 | PPLPRAPPVPPATF [YJL021C 6-19]
306 | PPQMRSNPQQPPQD [YPL204W 472-485]
95.7 | PIGSRYNPNLPVTE [YPR019W 677-690]
57 | PPPPRRGPAPPPPP [YOR181W 345-358]
1 | PPNYKQQPNSPSSN [YLR183C 18-31]
261 | PLRERIIPILPANS [YMR164C 159-172]

Molecular target: T6, Yhr016c SH3 (YSC84_YEAST), P32793
Test: SPOT array

Binder | normalised SPOT signal, Boehringer light units (BLU); mean over the file's lines of this peptide
PGGPKFEPLYPREE [YHR165C 347-360] | 16.9
PIRLRKRPPPPPPV [YIL156W 508-521] | 25.6
PKSPKAYPKLPDIQ [YDL117W 352-365] | 24.1
PIVKKNVPKPPPLV [YBR123C 400-413] | 27.1
PHFAKHSPDSPRTS [YER167W 325-338] | 27.4
PKHIRNEPVKPFRN [YHR037W 25-38] | 59.8
PKKSRVLPPLPFPL [YER032W 884-897] | 3660

More lines, now with the values ahead:

normalised SPOT signal, Boehringer light units (BLU); mean over the file's lines of this peptide | Binder
0.1 | PKSEKIEPLSPSFK [YJL172W 61-74]
16.4 | PNPLKKAPIPPLAY [YPR059C 36-49]
24.1 | PKTGKPLPTQPSSS [YKR001C 557-570]
10.8 | PPLPRAPPVPPATF [YJL021C 6-19]
456 | PPQMRSNPQQPPQD [YPL204W 472-485]
87.4 | PIGSRYNPNLPVTE [YPR019W 677-690]
39.4 | PPPPRRGPAPPPPP [YOR181W 345-358]
30.5 | PPNYKQQPNSPSSN [YLR183C 18-31]
84.4 | PLRERIIPILPANS [YMR164C 159-172]
